Test results published in paper doi:10.1101/209643 (bioRxiv, 2017).
Positions count from the first letter of the chain named. In names and notes the source's numbering stands.

B1: Cdc11-containing septin complex (Cdc10, Cdc3, Cdc12, Cdc11), wild type (complex)
chain 1: MSAATATAAPVPPPVGISNLPNQRYKIVNEEGGTFTVMLCGESGLGKTTFINTLFQTVLKRADGQQHRQEPIRKTVEIDITRALLEEKHFELRVNVIDTPGFGDNVNNNKAWQPLVDFIDDQHDSYMRQEQQPYRTKKFDLRVHAVLYFIRPTGHGLKPIDIETMKRLSTRANLIPVIAKADTLTAQELQQFKSRIRQVIEAQEIRIFTPPLDADSKEDAKSGSNPDSAAVEHARQLIEAMPFAIVGSEKKFDNGQGTQVVARKYPWGLVEIENDSHCDFRKLRALLLRTYLLDLISTTQEMHYETYRRLRLEGHENTGEGNEDFTLPAIAPARKLSHNPRYKEEENALKKYFTDQVKAEEQRFRQWEQNIVNERIRLNGDLEEIQGKVKKLEEQVKSLQVKKSHLK
chain 2: MDPLSSVQPASYVGFDTITNQIEHRLLKKGFQFNIMVVGQSGLGKSTLINTLFASHLIDSATGDDISALPVTKTTEMKISTHTLVEDRVRLNINVIDTPGFGDFIDNSKAWEPIVKYIKEQHSQYLRKELTAQRERFITDTRVHAILYFLQPNGKELSRLDVEALKRLTEIANVIPVIGKSDTLTLDERTEFRELIQNEFEKYNFKIYPYDSEELTDEELELNRSVRSIIPFAVVGSENEIEINGETFRGRKTRWSAINVEDINQCDFVYLREFLIRTHLQDLIETTSYIHYEGFRARQLIALKENANSRSSAHMSSNAIQR
chain 3: MSLKEEQVSIKQDPEQEERQHDQFNDVQIKQESQDHDGVDSQYTNGTQNDDSERFEAAESDVKVEPGLGMGITSSQSEKGQVLPDQPEIKFIRRQINGYVGFANLPKQWHRRSIKNGFSFNLLCVGPDGIGKTTLMKTLFNNDDIEANLVKDYEEELANDQEEEEGQGEGHENQSQEQRHKVKIKSYESVIEENGVKLNLNVIDTEGFGDFLNNDQKSWDPIIKEIDSRFDQYLDAENKINRHSINDKRIHACLYFIEPTGHYLKPLDLKFMQSVYEKCNLIPVIAKSDILTDEEILSFKKTIMNQLIQSNIELFKPPIYSNDDAENSHLSERLFSSLPYAVIGSNDIVENYSGNQVRGRSYPWGVIEVDNDNHSDFNLLKNLLIKQFMEELKERTSKILYENYRSSKLAKLGIKQDNSVFKEFDPISKQQEEKTLHEAKLAKLEIEMKTVFQQKVSEKEKKLQKSETELFARHKEMKEKLTKQLKALEDKKKQLELSINSASPNVNHSPVPTKKKGFLR
chain 4: MSGIIDASSALRKRKHLKRGITFTVMIVGQSGSGRSTFINTLCGQQVVDTSTTILLPTDTSTEIDLQLREETVELEDDEGVKIQLNIIDTPGFGDSLDNSPSFEIISDYIRHQYDEILLEESRVRRNPRFKDGRVHCCLYLINPTGHGLKEIDVEFIRQLGSLVNIIPVISKSDSLTRDELKLNKKLIMEDIDRWNLPIYNFPFDEDEISDEDYETNMYLRTLLPFAIIGSNEVYEMGGDVGTIRGRKYPWGILDVEDSSISDFVILRNALLISHLHDLKNYTHEILYERYRTEALSGESVAAESIRPNLTKLNGSSSSSTTTRRNTNPFKQSNNINNDVLNPASDMHGQSTGENNETYMTREEQIRLEEERLKAFEERVQQELLLKRQELLQREKELREIEARLEKEAKIKQEE
B2: Cdc12 T75A septin complex (Cdc10, Cdc3, Cdc12 T75A, Cdc11) (complex)
chain 1: B1 chain 1 with T75A
chain 2: B1 chain 2
chain 3: B1 chain 3
chain 4: B1 chain 4
B3: Cdc11 D65T septin complex (Cdc10, Cdc3, Cdc12, Cdc11 D65T-GFP) (complex)
chain 1: B1 chain 1
chain 2: B1 chain 2
chain 3: B1 chain 3
chain 4: B1 chain 4 with D65T
B4: Double mutant septin complex (Cdc10, Cdc3, Cdc12 T75A, Cdc11 D65T-GFP) (complex)
chain 1: B1 chain 1 with T75A
chain 2: B1 chain 2
chain 3: B1 chain 3
chain 4: B1 chain 4 with D65T

Molecular target: the molecule itself
Experiment: TIRF microscopy of filament polymerisation

Protein	binding result
B1	binds
B2	binds
B3	binds
B4	binds
